Results taken from paper PMC10906865.

Biological target: Human Herpes Simplex Virus glycoprotein D (Human Herpes Simplex Virus) (UniProt Q69091)
Assay: differential scanning calorimetry; peak height of the DSC thermogram of the pure protein compared with a DNA hairpin standard curve; ratio of the calorimetric concentration to the UV-Vis or dry-weight concentration read as stoichiometry; 150 mM NaCl, 10 mM potassium phosphate, 15 mM sodium citrate, pH 7.4; heating about 1°C/min

## Human Herpes Simplex Virus glycoprotein D (from UniProt Q69091 26-394) (natural protein)
  factor of the transition heat capacity over the average of the other molecules: 2.2 fold
  percent of dimers in the sample: 35%
  percent of trimers in the sample: 65%
  stoichiometry N: 2.65
